Measured values reported in patent publication US20100298539A1 (ALLIGATOR BIOSCIENCE, published 2010).

Key:
[1] = biological target: T1, Chemotaxis Inhibitory Protein of Staphylococcus aureus (CHIPS), wildtype, amino acids 1-121 (Staphylococcus aureus, UniProt A6QIG7 29-149); assay: competition: CHIPS given iv (0.1 mg/kg) against the binding of FITC labelled anti-CD88 mAb to C5aR on gated blood neutrophils, flow cytometry [B) (cont.]
[2] = biological target: T1, Chemotaxis Inhibitory Protein of …; assay: competition: CHIPS given iv (0.1 mg/kg) against the binding of FITC-fMLP to FPR on gated blood neutrophils, flow cytometry [A) (cont.]

B1: human C5a receptor (C5aR) (receptor)
chain: MDSFNYTTPDYGHYDDKDTLDLNTPVDKTSNTLRVPDILALVIFAVVFLVGVLGNALVVWVTAFEAKRTINAIWFLNLAVADFLSCLALPILFTSIVQHHHWPFGGAACSILPSLILLNMYASILLLATISADRFLLVFKPIWCQNFRGAGLAWIACAVAWGLALLLTIPSFLYRVVREEYFPPKVLCGVDYSHDKRRERAVAIVRLVLGFLWPLLTLTICYTFILLRTWSRRATRSTKTLKVVVAVVASFFIFWLPYQVTGIMMSFLEPSSPTFLLLKKLDSLCVSFAYINCCINPIIYVVAGQGFQGRLRKSLPSLLRNVLTEESVVRESKSFTRSTVDTMAQKTQAV
notes: whole, on cells; also called CD88; U937/C5aR cells
binding result [1]: binds

B2: human formylated peptide receptor (FPR) (receptor)
chain: METNSSLPTNISGGTPAVSAGYLFLDIITYLVFAVTFVLGVLGNGLVIWVAGFRMTHTVTTISYLNLAVADFCFTSTLPFFMVRKAMGGHWPFGWFLCKFVFTIVDINLFGSVFLIALIALDRCVCVLHPVWTQNHRTVSLAKKVIIGPWVMALLLTLPVIIRVTTVPGKTGTVACTFNFSPWTNDPKERINVAVAMLTVRGIIRFIIGFSAPMSIVAVSYGLIATKIHKQGLIKSSRPLRVLSFVAAAFFLCWSPYQVVALIATVRIRELLQGMYKEIGIAVDVTSALAFFNSCLNPMLYVFMGQDFRERLIHALPASLERALTEDSTQTSDTATNSTLPSAEVELQAK
notes: whole, on cells; also called formyl-peptide-receptor
binding result [2]: binds
